According to IntAct's records for PubMed 18166655:

B1: Death-associated inhibitor of apoptosis 2 (Drosophila melanogaster (Fruit fly)), Q24307 (parent)
chain: MTELGMELESVRLATFGEWPLNAPVSAEDLVANGFFATGNWLEAECHFCHVRIDRWEYGDQVAERHRRSSPICSMVLAPNHCGNVPRSQESDNEGNSVVDSPESCSCPDLLLEANRLVTFKDWPNPNITPQALAKAGFYYLNRLDHVKCVWCNGVIAKWEKNDNAFEEHKRFFPQCPRVQMGPLIEFATGKNLDELGIQPTTLPLRPKYACVDARLRTFTDWPISNIQPASALAQAGLYYQKIGDQVRCFHCNIGLRSWQKEDEPWFEHAKWSPKCQFVLLAKGPAYVSEVLATTAANASSQPATAPAPTLQADVLMDEAPAKEALALGIDGGVVRNAIQRKLLSSGCAFSTLDELLHDIFDDAGAGAALEVREPPEPSAPFIEPCQATTSKAASVPIPVADSIPAKPQAAEAVANISKITDEIQKMSVATPNGNLSLEEENRQLKDARLCKVCLDEEVGVVFLPCGHLATCNQCAPSVANCPMCRADIKGFVRTFLS
partner: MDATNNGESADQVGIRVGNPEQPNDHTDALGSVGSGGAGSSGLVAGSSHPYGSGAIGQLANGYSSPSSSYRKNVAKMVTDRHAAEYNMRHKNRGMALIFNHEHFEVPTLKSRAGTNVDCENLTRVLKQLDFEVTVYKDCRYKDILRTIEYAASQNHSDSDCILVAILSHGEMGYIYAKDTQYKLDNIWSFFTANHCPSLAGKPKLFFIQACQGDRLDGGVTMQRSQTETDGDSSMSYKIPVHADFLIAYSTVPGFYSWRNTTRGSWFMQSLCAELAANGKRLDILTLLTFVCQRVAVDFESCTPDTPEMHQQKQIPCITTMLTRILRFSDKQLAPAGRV
B2: Caspase drICE (Drosophila melanogaster (Fruit fly)), O01382 (parent)
chain: B1 partner
partner: B1 chain

Variants of: B1
Conditions: with drice_drome Drice

Row | Variant | effect of a mutation on the interaction
1 | MTELGMELESVRLATFGEWPLNAPVSAEDLVANGFFATGNWLEAECHFCHVRIDRWEYGDQVAERHRRSSPICSMVLAPNHCGNVPRSQESDNEGNSVVDSPESCSCPDLLLEANRLVTFKDWPNPNITPQALAKAGFYYLNRLDHVKGVWCNGVIAKWEKNDNAFEEHKRFFPQCPRVQMGPLIEFATGKNLDELGIQPTTLPLRPKYACVDARLRTFTDWPISNIQPASALAQAGLYYQKIGDQVRCFHCNIGLRSWQKEDEPWFEHAKWSPKCQFVLLAKGPAYVSEVLATTAANASSQPATAPAPTLQADVLMDEAPAKEALALGIDGGVVRNAIQRKLLSSGCAFSTLDELLHDIFDDAGAGAALEVREPPEPSAPFIEPCQATTSKAASVPIPVADSIPAKPQAAEAVANISKITDEIQKMSVATPNGNLSLEEENRQLKDARLCKVCLDEEVGVVFLPCGHLATCNQCAPSVANCPMCRADIKGFVRTFLS [C149G] | with no effect
2 | MTELGMELESVRLATFGEWPLNAPVSAEDLVANGFFATGNWLEAECHFCHVRIDRWEYGDQVAERHRRSSPICSMVLAPNHCGNVPRSQESDNEGNSVVDSPESCSCPDLLLEANRLVTFKDWPNPNITPQALAKAGFYYLNRLDHVKCVWCNGVIAKWEKNDNAFEEHKRFFPQCPRVQMGPLIEFATGKNLDELGIQPTTLPLRPKYACVDARLRTFTDWPISNIQPASALAQAGLYYQKIGDQVRGFHCNIGLRSWQKEDEPWFEHAKWSPKCQFVLLAKGPAYVSEVLATTAANASSQPATAPAPTLQADVLMDEAPAKEALALGIDGGVVRNAIQRKLLSSGCAFSTLDELLHDIFDDAGAGAALEVREPPEPSAPFIEPCQATTSKAASVPIPVADSIPAKPQAAEAVANISKITDEIQKMSVATPNGNLSLEEENRQLKDARLCKVCLDEEVGVVFLPCGHLATCNQCAPSVANCPMCRADIKGFVRTFLS [C249G] | disrupting interaction strength
3 | MTELGMELESVRLATFGEWPLNAPVSAEDLVANGFFATGNWLEAECHFCHVRIDRWEYGDQVAERHRRSSPICSMVLAPNHCGNVPRSQESDNEGNSVVESPESCSCPDLLLEANRLVTFKDWPNPNITPQALAKAGFYYLNRLDHVKCVWCNGVIAKWEKNDNAFEEHKRFFPQCPRVQMGPLIEFATGKNLDELGIQPTTLPLRPKYACVDARLRTFTDWPISNIQPASALAQAGLYYQKIGDQVRCFHCNIGLRSWQKEDEPWFEHAKWSPKCQFVLLAKGPAYVSEVLATTAANASSQPATAPAPTLQADVLMDEAPAKEALALGIDGGVVRNAIQRKLLSSGCAFSTLDELLHDIFDDAGAGAALEVREPPEPSAPFIEPCQATTSKAASVPIPVADSIPAKPQAAEAVANISKITDEIQKMSVATPNGNLSLEEENRQLKDARLCKVCLDEEVGVVFLPCGHLATCNQCAPSVANCPMCRADIKGFVRTFLS [D100E] | disrupting interaction strength
4 | MTELGMELESVRLATFGEWPLNAPVSAEDLVANGFFATGNWLEAECHFCHVRIDRWEYGDQVAERHRRSSPICSMVLAPNHCGNVPRSQESDNEGNSVVDSPESCSCPDLLLEANRLVTFKDWPNPNITPQALAKAGFYYLNRLDHVKCVWCNGVIAKWEKNANAFEEHKRFFPQCPRVQMGPLIEFATGKNLDELGIQPTTLPLRPKYACVDARLRTFTDWPISNIQPASALAQAGLYYQKIGDQVRCFHCNIGLRSWQKEDEPWFEHAKWSPKCQFVLLAKGPAYVSEVLATTAANASSQPATAPAPTLQADVLMDEAPAKEALALGIDGGVVRNAIQRKLLSSGCAFSTLDELLHDIFDDAGAGAALEVREPPEPSAPFIEPCQATTSKAASVPIPVADSIPAKPQAAEAVANISKITDEIQKMSVATPNGNLSLEEENRQLKDARLCKVCLDEEVGVVFLPCGHLATCNQCAPSVANCPMCRADIKGFVRTFLS [D163A] | with no effect
5 | MTELGMELESVRLATFGEWPLNAPVSAEDLVANGFFATGNWLEAECHFCHVRIDRWEYGDQVAERHRRSSPICSMVLAPNHCGNVPRSQESDNEGNSVVDSPESCSCPDLLLEANRLVTFKDWPNPNITPQALAKAGFYYLNRLDHVKCVWCNGVIAKWEKNDNAFEEHKRFFPQCPRVQMGPLIEFATGKNLDELGIQPTTLPLRPKYACVDARLRTFTDWPISNIQPASALAQAGLYYQKIGDQVRCFHCNIGLRSWQKEAEPWFEHAKWSPKCQFVLLAKGPAYVSEVLATTAANASSQPATAPAPTLQADVLMDEAPAKEALALGIDGGVVRNAIQRKLLSSGCAFSTLDELLHDIFDDAGAGAALEVREPPEPSAPFIEPCQATTSKAASVPIPVADSIPAKPQAAEAVANISKITDEIQKMSVATPNGNLSLEEENRQLKDARLCKVCLDEEVGVVFLPCGHLATCNQCAPSVANCPMCRADIKGFVRTFLS [D263A] | disrupting interaction strength

Variants of: B2
Conditions: with diap2_drome Diap2, Q24307

Row | Variant | effect of a mutation on the interaction
6 | MDATNNGESADQVGIRVGNPEQPNDHTDVLGSVGSGGAGSSGLVAGSSHPYGSGAIGQLANGYSSPSSSYRKNVAKMVTDRHAAEYNMRHKNRGMALIFNHEHFEVPTLKSRAGTNVDCENLTRVLKQLDFEVTVYKDCRYKDILRTIEYAASQNHSDSDCILVAILSHGEMGYIYAKDTQYKLDNIWSFFTANHCPSLAGKPKLFFIQACQGDRLDGGVTMQRSQTETDGDSSMSYKIPVHADFLIAYSTVPGFYSWRNTTRGSWFMQSLCAELAANGKRLDILTLLTFVCQRVAVDFESCTPDTPEMHQQKQIPCITTMLTRILRFSDKQLAPAGRV [A29V] | decreasing interaction strength
